Experimental data: US20240277762A1 (published 2024)

Key:
[1] = target: T1, PRAME peptide on HLA-A*02:01 (human); assay: killing
T1 peptide: SLLQHLIGL

[2] = target: T2, PRAME peptide on HLA-A*02:02 (human); assay: cytokine release
T2 peptide: SLLQHLIGL

[3] = target: T3, PRAME peptide on HLA-A*02:04 (human); assay: cytokine release
T3 peptide: SLLQHLIGL

[4] = target: T4, PRAME peptide on HLA-A*02:09 (human); assay: cytokine release
T4 peptide: SLLQHLIGL

Measured: binding result

B1: T23.8-2.1-027-004 (TCR, V domains shown)
Valpha: GQQLNQSPQSMFIQEGEDVSMNCTSSSIFNTWLWYKQDPGEGPVLLIALYKAGELTSNGRLTAQFGITRKDSFLNISASIPSDVGIYFCAGLADYGGSQGNLIFGKGTKLSVKP
Vbeta: DSGVTQTPKHLITATGQRVTLRCSPRSGDLSVYWYQQSLDQGLQFLIQYYNGEERAKGNILERFSAQQFPDLHSELNLSSLELGDSALYFCASSVWASGGYEQYFGPGTRLTVT
recognises: [1] | [2] | [3] | [4]
